Paper PMC4439037, “Distinctive Structure of the EphA3/Ephrin-A5 Complex Reveals a Dual Mode of Eph Receptor Interaction for Ephrin-A5” (PLoS ONE, 2015)

B1: human EphA3 ligand-binding domain (domain or fragment)
chain: EVNLLDSKTIQGELGWISYPSHGWEEISGVDEHYTPIRTYQVCNVMDHSQNNWLRTNWVPRNSAQKIYVELKFTLRDCNSIPLVLGTCKETFNLYYMESDDDHGVKFREHQFTKIDTIAADESFTQMDLGDRILKLNTEIREVGPVNKKGFYLAFQDVGACVALVSVRVYFK
notes: also called EphA3 LBD; EphA3 receptor; not shown: GST, N-terminal, cleaved; 10xHis, N-terminal, cleaved
B2: human ephrin-A5 receptor-binding domain (domain or fragment)
chain: KAVADRYAVYWNSSNPRFQRGDYHIDVCINDYLDVFCPHYEDSVPEDKTERYVLYMVNFDGYSACDHTSKGFKRWECNRPHSPNGPLKFSEKFQLFTPFSLGFEFRPGREYFYISSAIPDNGRRSCLKLKVFVRPTNSCMK
modifications: deglycosylated with PNGase F
notes: also called ephrin-A5 ligand

Experiments:
[1] = target: B2; assay: ITC; details: both partners purified
[2] = target: B1; assay: ITC; details: both partners purified

## B1
[1]
  dH: -2.15 kcal/mol

## B2
[2]
  Kd: 9 nM
